Measured values: patent US20200199241A1 (Chugai, published 2020)
Where two headings read alike, the source gives them in different places.

T1: human FcγRIIb (human, UniProt P31994 43-217, limits assumed)
T1 construct: also called FcγIIB
T1 sequence: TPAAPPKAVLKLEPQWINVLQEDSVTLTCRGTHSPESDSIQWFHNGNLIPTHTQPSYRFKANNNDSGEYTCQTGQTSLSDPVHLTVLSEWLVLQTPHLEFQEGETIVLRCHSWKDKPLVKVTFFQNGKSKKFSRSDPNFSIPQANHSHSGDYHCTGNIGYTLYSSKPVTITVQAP

T2: human FcγRIIa type R (human, UniProt P12318 36-217)
T2 construct: also called FcγRIIaR; FcγRIIa(R)
T2 chain: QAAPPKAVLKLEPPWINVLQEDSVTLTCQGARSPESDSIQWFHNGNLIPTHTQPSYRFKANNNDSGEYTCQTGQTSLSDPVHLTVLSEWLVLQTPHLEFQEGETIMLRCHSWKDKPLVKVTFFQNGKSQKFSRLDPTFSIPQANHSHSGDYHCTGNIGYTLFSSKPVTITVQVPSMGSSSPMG

T3: human FcγRIIa type H (human, UniProt P12318 36-217)
T3 construct: also called FcγRIIaH; FcγRIIa(H)
T3 sequence: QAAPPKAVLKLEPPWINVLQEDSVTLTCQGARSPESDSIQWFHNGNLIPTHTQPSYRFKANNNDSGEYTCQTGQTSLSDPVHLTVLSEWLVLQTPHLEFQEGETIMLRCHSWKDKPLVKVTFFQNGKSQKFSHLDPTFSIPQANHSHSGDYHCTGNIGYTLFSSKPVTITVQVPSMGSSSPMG

T4: mouse FcRn (mouse, UniProt Q61559 22-297; P01887 21-119, limits assumed)
T4 construct: also called mFcRn
T4 sequence (looked up) 1: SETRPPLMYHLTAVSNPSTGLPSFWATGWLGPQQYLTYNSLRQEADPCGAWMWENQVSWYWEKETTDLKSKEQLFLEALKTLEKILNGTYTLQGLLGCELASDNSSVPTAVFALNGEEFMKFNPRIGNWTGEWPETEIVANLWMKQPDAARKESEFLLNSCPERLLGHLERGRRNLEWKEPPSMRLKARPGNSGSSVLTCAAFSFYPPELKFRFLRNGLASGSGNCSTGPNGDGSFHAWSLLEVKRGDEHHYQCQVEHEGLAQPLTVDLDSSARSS
T4 sequence (looked up) 2: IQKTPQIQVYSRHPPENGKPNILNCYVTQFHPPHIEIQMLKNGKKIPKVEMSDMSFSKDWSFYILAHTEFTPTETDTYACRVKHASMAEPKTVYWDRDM


How the values were obtained:
[1] = molecular target: T1, human FcγRIIb; experiment: SPR (Biacore); KD for FcγRIIaR divided by KD for FcγRIIb of the same antibody
[2] = molecular target: T1, human FcγRIIb; experiment: SPR (Biacore); ratio against IgG1
Protocol: (§1) Next, interaction between these antibodies and FcγR was analyzed kinetically using the BIACORE™ T100 (GE Healthcare). The interaction was measured at a temperature of 25° C. using HBS-EP+ (GE Healthcare) for the running buffer. The Series S Sensor Chip CMS (GE Healthcare) was used after immobilizing Protein A by amine coupling. […] Antibody captured on the chip was washed by allowing 10 mM glycine-HCl (pH 1.5) to react following measurement. The chip regenerated in this manner was used repeatedly. The dissociation constant KD (mol/L) was calculated from the association rate constant ka (L/mol/s) and dissociation rate constant kd (l/s) as calculated by global-fitting the measurement results with a 1:1 Langmuir binding model using the BIACORE™ Evaluation Software.

[3] = molecular target: T1, human FcγRIIb; experiment: SPR (Biacore); ratio against parent IL6R-F11/IL6R-L
[4] = molecular target: T1, human FcγRIIb; experiment: SPR (Biacore), antibody captured, FcγR as analyte
Protocol: as §1

[5] = molecular target: T1, human FcγRIIb; experiment: SPR (Biacore), binding amount relative to IL6R-BF648/IL6R-L = 100
[6] = molecular target: T2, human FcγRIIa type R; experiment: as above
[7] = molecular target: T3, human FcγRIIa type H; experiment: as above
[8] = molecular target: T5, human FcγRIa (human, UniProt P12314 16-292, limits assumed); experiment: as above
T5 construct: also called CD64

[9] = molecular target: T6, human FcγRIIIa type V (human, UniProt P08637 17-208, limits assumed); experiment: as above
T6 construct: also called FcγRIIIaV; FcγRIIIa(V)

[10] = molecular target: T1, human FcγRIIb; experiment: SPR (Biacore), antibody captured, FcγR as analyte; remark: listed apart in the source
[11] = molecular target: T1, human FcγRIIb; experiment: SPR (Biacore); KD for FcγRIIaH divided by KD for FcγRIIb of the same antibody
[12] = molecular target: T1, human FcγRIIb; experiment: SPR (Biacore); ratio against IgG1; remark: listed apart in the source
[13] = molecular target: T1, human FcγRIIb; experiment: SPR (Biacore), antibody captured, FcγR as analyte; remark: listed apart in the source
[14] = molecular target: T2, human FcγRIIa type R; experiment: SPR (Biacore), antibody captured, FcγR as analyte
[15] = molecular target: T3, human FcγRIIa type H; experiment: SPR (Biacore), antibody captured, FcγR as analyte
[16] = molecular target: T5, human FcγRIa; experiment: SPR (Biacore), antibody captured, FcγR as analyte
[17] = molecular target: T6, human FcγRIIIa type V; experiment: SPR (Biacore), antibody captured, FcγR as analyte
[18] = molecular target: T4, mouse FcRn; experiment: SPR, mouse FcRn, pH 7.0

T6 sequence (P08637 other isoform, or with tags, fused parts or gaps limits assumed): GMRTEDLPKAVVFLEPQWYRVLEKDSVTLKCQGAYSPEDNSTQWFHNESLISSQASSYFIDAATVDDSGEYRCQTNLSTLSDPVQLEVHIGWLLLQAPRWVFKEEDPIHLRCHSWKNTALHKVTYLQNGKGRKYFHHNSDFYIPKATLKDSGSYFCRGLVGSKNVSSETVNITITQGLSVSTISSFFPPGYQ
T5 sequence (P12314 16-292 limits assumed): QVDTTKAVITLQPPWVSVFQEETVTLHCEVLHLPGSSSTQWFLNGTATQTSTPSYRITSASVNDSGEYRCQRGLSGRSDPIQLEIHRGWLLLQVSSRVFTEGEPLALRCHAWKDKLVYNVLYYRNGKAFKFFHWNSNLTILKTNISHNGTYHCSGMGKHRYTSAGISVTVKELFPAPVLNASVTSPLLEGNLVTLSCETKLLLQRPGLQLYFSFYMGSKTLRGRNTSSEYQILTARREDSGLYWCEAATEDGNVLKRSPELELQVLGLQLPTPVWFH

Binder | KD(IIaR)/KD(IIb) [1] | relative KD for FcγRIIb (KD for IgG1/KD for each variant) [2] | KD(IIb) of parent polypeptide/KD(IIb) of altered polypeptide [3] | Kd [4] | relative binding [5] | relative binding [6] | relative binding [7] | relative binding [8] | relative binding [9] | Kd [10] | KD(IIaH)/KD(IIb) [11] | relative KD for FcγRIIb (KD for IgG1/KD for each variant) [12] | Kd [13] | Kd [14] | Kd [15] | Kd [16] | Kd [17] | Kd [18]
IL6R-G1d/IL6R-L (antibody, human IgG1, Anti-human IL-6 receptor antibody with the G1d constant region (human IgG1 without the C-terminal Gly-Lys); also called IgG1; IgG1 (IL6R-G1d)) heavy: not shown light: DIQMTQSPSSLSASVGDRVTITCRASQDISSYLNWYQQKPGKAPKLLIYYTSRLHSGVPSRFSGSGSGTDFTFTISSLQPEDIATYYCQQGNTLPYTFGQGTKVEIK | 0.4 | 1 | 2.6 | 5300 nM | 62 | 650 | 1670 | 140 | 3350 | 5300 nM | 0.3 | 1 | 2600 nM | 1000 nM | 670 nM | 0.32 nM | 350 nM | –
antibody with mPM1H-mIgG1-mF3 heavy chain and L(WT)-CK light chain (antibody, T252Y/T256E/H433K/N434F; copies: 2 + 2) heavy: DVQLQESGPVLVKPSQSLSLTCTVTGYSITSDHAWSWIRQFPGNKLEWMGYISYSGITTYNPSLKSRISITRDTSKNQFFLQLNSVTTGDTSTYYCARSLARTTAMDYWGQGTSVTVSSAKTTPPSVYPLAPGSAAQTNSMVTLGCLVKGYFPEPVTVTWNSGSLSSGVHTFPAVLQSDLYTLSSSVTVPSSTWPSETVTCNVAHPASSTKVDKKIVPRDCGCKPCICTVPEVSSVFIFPPKPKDVLYITLEPKVTCVVVDISKDDPEVQFSWFVDDVEVHTAQTQPREEQFNSTFRSVSELPIMHQDWLNGKEFKCRVNSAAFPAPIEKTISKTKGRPKAPQVYTIPPPKEQMAKDKVSLTCMITDFFPEDITVEWQWNGQPAENYKNTQPIMDTDGSYFVYSKLNVQKSNWEAGNTFTCSVLHEGLKFHHTEKSLSHSPGK light: not shown | – | – | – | – | – | – | – | – | – | – | – | – | – | – | – | – | – | 1.6 nM
